T1: human LAG-3 domain 1-2 Fc fusion, point mutation #30 G83A (human, UniProt P18627 23-266)
T1 construct: not shown: human IgG1 Fc, AA P101-K330
T1 sequence: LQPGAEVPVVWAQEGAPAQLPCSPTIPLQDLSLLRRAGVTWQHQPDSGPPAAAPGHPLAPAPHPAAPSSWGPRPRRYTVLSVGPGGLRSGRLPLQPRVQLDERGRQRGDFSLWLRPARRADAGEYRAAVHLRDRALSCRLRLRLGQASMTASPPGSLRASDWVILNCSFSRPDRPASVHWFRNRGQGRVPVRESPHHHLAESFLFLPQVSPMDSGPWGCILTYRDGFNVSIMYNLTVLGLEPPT

T2: human LAG-3 domain 1-2 Fc fusion, point mutation #69 R129A (human, UniProt P18627 23-266)
T2 construct: not shown: human IgG1 Fc, AA P101-K330
T2 sequence: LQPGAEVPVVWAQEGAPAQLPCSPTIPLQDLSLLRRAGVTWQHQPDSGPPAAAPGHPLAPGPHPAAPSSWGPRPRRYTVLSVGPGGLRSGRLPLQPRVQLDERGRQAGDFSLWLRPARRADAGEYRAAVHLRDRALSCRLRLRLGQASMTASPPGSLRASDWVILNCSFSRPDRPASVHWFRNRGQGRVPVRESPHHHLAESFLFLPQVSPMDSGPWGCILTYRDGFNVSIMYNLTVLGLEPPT

T3: human LAG-3 domain 1-2 Fc fusion, point mutation #17 Q66A (human, UniProt P18627 23-266)
T3 construct: not shown: human IgG1 Fc, AA P101-K330
T3 sequence: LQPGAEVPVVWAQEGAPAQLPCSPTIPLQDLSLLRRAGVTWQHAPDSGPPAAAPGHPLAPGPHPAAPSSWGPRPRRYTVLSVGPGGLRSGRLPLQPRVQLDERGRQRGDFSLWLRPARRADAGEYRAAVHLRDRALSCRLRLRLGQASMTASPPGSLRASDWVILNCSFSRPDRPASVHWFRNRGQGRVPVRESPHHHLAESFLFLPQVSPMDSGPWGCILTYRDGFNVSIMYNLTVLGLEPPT

T4: human LAG-3 domain 1-2 Fc fusion, point mutation #46 Y99A (human, UniProt P18627 23-266)
T4 construct: not shown: human IgG1 Fc, AA P101-K330
T4 sequence: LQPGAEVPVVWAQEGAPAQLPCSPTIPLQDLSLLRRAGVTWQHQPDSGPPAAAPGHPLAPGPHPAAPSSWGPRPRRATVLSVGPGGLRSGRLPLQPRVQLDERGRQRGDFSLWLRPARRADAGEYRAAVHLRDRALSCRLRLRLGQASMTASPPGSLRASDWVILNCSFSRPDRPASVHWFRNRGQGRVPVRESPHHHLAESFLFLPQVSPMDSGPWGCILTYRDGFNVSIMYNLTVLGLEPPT

T5: human LAG-3 domain 1-2 Fc fusion, point mutation #5 P46A (human, UniProt P18627 23-266)
T5 construct: not shown: human IgG1 Fc, AA P101-K330
T5 sequence: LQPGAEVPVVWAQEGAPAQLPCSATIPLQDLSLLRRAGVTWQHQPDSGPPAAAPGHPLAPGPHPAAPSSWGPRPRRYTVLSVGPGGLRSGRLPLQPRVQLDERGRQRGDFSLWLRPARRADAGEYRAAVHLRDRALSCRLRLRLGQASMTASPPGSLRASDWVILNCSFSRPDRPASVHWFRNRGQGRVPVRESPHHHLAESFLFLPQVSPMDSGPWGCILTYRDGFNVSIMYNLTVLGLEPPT

T6: human LAG-3 domain 1-2 Fc fusion, point mutation #3 P43A (human, UniProt P18627 23-266)
T6 construct: not shown: human IgG1 Fc, AA P101-K330
T6 sequence: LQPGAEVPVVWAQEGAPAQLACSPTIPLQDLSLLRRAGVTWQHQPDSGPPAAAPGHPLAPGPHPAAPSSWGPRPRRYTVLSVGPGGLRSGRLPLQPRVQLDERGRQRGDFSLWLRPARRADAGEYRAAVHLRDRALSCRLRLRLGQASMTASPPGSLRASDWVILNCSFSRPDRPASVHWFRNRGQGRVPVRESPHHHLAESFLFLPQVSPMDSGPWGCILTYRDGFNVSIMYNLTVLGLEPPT

T7: human LAG-3 domain 1-2 Fc fusion, point mutation #40 G93A (human, UniProt P18627 23-266)
T7 construct: not shown: human IgG1 Fc, AA P101-K330
T7 sequence: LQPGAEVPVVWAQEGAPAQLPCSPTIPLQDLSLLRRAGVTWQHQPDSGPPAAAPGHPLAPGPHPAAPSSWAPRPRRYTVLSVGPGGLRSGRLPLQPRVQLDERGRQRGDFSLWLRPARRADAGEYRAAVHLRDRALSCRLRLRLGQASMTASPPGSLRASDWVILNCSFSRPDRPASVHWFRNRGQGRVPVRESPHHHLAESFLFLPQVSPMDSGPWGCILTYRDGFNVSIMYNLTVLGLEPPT

T8: human LAG-3 domain 1-2 Fc fusion, point mutation #52 G108A (human, UniProt P18627 23-266)
T8 construct: not shown: human IgG1 Fc, AA P101-K330
T8 sequence: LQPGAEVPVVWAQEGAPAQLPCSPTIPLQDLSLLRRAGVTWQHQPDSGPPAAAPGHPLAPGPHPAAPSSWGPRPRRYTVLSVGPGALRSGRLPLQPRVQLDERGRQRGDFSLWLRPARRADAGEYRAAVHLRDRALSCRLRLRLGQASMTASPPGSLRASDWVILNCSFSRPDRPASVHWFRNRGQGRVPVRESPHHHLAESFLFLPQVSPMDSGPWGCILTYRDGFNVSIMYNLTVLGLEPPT

T9: human LAG-3 domain 1-2 Fc fusion, point mutation #32 H85A (human, UniProt P18627 23-266)
T9 construct: not shown: human IgG1 Fc, AA P101-K330
T9 sequence: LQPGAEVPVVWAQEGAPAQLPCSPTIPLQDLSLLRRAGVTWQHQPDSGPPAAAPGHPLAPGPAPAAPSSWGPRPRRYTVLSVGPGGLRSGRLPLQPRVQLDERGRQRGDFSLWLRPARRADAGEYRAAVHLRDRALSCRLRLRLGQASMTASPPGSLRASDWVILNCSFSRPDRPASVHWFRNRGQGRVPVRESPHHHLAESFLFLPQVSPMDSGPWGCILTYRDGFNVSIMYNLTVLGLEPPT


Experiments:
Assay in all cases: SPR, Fab over captured mutant LAG-3-Fc;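 note: fc fusion variants captured on anti-human IgG Fc sensor, Fab injected with association then dissociation phases, KD obtained from Langmuir one-to-one fit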
[1] = molecular target: T1, human LAG-3 domain 1-2 Fc fusion, point …
[2] = molecular target: T2, human LAG-3 domain 1-2 Fc fusion, point …
[3] = molecular target: T3, human LAG-3 domain 1-2 Fc fusion, point …
[4] = molecular target: T4, human LAG-3 domain 1-2 Fc fusion, point …
[5] = molecular target: T5, human LAG-3 domain 1-2 Fc fusion, point …
[6] = molecular target: T6, human LAG-3 domain 1-2 Fc fusion, point …
[7] = molecular target: T7, human LAG-3 domain 1-2 Fc fusion, point …
[8] = molecular target: T8, human LAG-3 domain 1-2 Fc fusion, point …
[9] = molecular target: T9, human LAG-3 domain 1-2 Fc fusion, point …

| KD mutant/KD wild type [1] [fold] | KD mutant/KD wild type [2] [fold] | KD mutant/KD wild type [3] [fold] | KD mutant/KD wild type [4] [fold] | KD mutant/KD wild type [5] [fold] | KD mutant/KD wild type [6] [fold] | KD mutant/KD wild type [7] [fold] | KD mutant/KD wild type [8] [fold] | KD mutant/KD wild type [9] [fold] | binding result [2] | binding result [3] | binding result [4] | binding result [5] | binding result [6] | Binder |
| --- | --- | --- | --- | --- | --- | --- | --- | --- | --- | --- | --- | --- | --- | --- |
| 1.1 | 3 | 2.7 | 4.1 | 4 | 3.8 | 7.1 | 1 | 7.2 |  |  |  |  |  | Fab fragment of antibody 15532 (Fab, V domains shown, not shown: a dimerising Fc or GST, monomeric Fab made by GingisKHAN digestion of the IgG1) VH: QVQLQQWGAGLLRPSETLSLTCAVYGESFSGYYWNWIRQPPGKGLEWIGEINHSGSTNYNPSLKSRVTISVDTSKTQFSLKLSSVTAADTAVYYCARGWDLLDWNDYWNEYWGQGTLVTVSS VL: EIVLTQSPATLSLSPGERATLSCRASQSVSSYLAWYQQKPGQAPRLLIYDASNRATGIPARFSGSGSGTDFTLTISSLEPEDFAVYYCQQRSNWPLTFGGGTKVEIKR |
| 0.5 |  |  |  |  |  | 0.8 | 0.4 | 0.7 | no binding (tested: 300 nM) | no binding (tested: 300 nM) | no binding (tested: 300 nM) | no binding (tested: 300 nM) | no binding (tested: 300 nM) | Fab fragment of antibody 15572 (Fab, V domains shown, not shown: a dimerising Fc or GST, monomeric Fab made by GingisKHAN digestion of the IgG1) VH: QLQLQESGPGLVKPSETLSLTCTVSGDSISSSSYYWGWIRQPPGKGLEWIGSIFYSGNTYYNPSLKSRVTISVDTSKNQFSLKLSSVTAADTAVYYCAREDDFLTDYYGAFDIWGQGTMVTVSS VL: not shown |

Continued, binder first:

| Binder | KD mutant/KD wild type [1] [fold] | KD mutant/KD wild type [2] [fold] | KD mutant/KD wild type [3] [fold] | KD mutant/KD wild type [4] [fold] | KD mutant/KD wild type [5] [fold] | KD mutant/KD wild type [6] [fold] | KD mutant/KD wild type [7] [fold] | KD mutant/KD wild type [8] [fold] | KD mutant/KD wild type [9] [fold] | binding result [2] | binding result [3] | binding result [4] | binding result [5] | binding result [6] |
| --- | --- | --- | --- | --- | --- | --- | --- | --- | --- | --- | --- | --- | --- | --- |
| Fab fragment of antibody 15011 (Fab, V domains shown, not shown: a dimerising Fc or GST, monomeric Fab made by GingisKHAN digestion of the IgG1) VH: EVQLLESGGGLVQPGGSLRLSCAASGFDFRSYAMMWVRQAPGKGLEWVGGINGEVGGSNTYYAPAVKGRATISRDNSKNTLYLQMNSLRAEDTAVYYCVKGAGACGICNDDIDAWGQGTLVTVSS VL: SYELTQDPAVSVALGQTVRITCSGAGSYAGSYYYGWHQQKPGQAPVTVIYDNDKRPSNIPDRFSGSSSGNTASLTITGAQAEDEADYYCGSTNDNDDGGLFGSGTKVTVLG | 0.7 | 0.7 | 0.7 | 0.5 | 0.7 | 0.6 | 1 | 0.5 | 0.9 |  |  |  |  |  |
| Fab fragment of antibody 15431 (Fab, V domains shown, not shown: a dimerising Fc or GST, monomeric Fab made by GingisKHAN digestion of the IgG1) VH: QVQLQQSGPGLVKPSQTLSLTCAISGDSVSSNSAAWNWIRQSPSRGLEWLGRTYYRSKWYNDYAVSVKSRITINPDTSKNQFSLQLNSVTPEDTAVYYCARDDDWNDFDYWGQGTLVTVSS VL: EIVLTQSPATLSLSPGERATLSCRASQSVSSYLAWYQQKPGQAPRLLIYDASNRATGIPARFSGSGSGTDFTLTISSLEPEDFAVYYCQQRSNWPLTFGGGTKVEIKR | 0.5 |  |  |  |  |  | 11.6 | 0.3 | 0.8 | no binding (tested: 300 nM) | no binding (tested: 300 nM) | no binding (tested: 300 nM) | no binding (tested: 300 nM) | no binding (tested: 300 nM) |

Reference: patent US20220363757A1 (SYMPHOGEN A S, published 2022)
